Results as given in article PMC5694551, “Kir2.1-Nav1.5 Channel Complexes Are Differently Regulated than Kir2.1 and Nav1.5 Channels Alone” (Frontiers in Physiology, 2017).

Biological target: T1, Nav1.5 channels of rat ventricular myocytes (rat (endogenous in ventricular myocytes), UniProt P15389 1-2019)
T1 construct: Nav1.5 sodium channel alpha subunit, endogenous at the membrane of Sprague-Dawley rat ventricular myocytes; source: endogenous, isolated rat ventricular myocytes (fixed, non-permeabilized)
Test: proximity ligation; Duolink PLA in fixed, non-permeabilized rat ventricular myocytes; primary antibodies against extracellular domains of Nav1.5 and Kir2.1; buffers without detergents; confocal microscopy; negative control without primary antibodies
Conditions: partners not purified

T1 sequence (P15389 whole entry): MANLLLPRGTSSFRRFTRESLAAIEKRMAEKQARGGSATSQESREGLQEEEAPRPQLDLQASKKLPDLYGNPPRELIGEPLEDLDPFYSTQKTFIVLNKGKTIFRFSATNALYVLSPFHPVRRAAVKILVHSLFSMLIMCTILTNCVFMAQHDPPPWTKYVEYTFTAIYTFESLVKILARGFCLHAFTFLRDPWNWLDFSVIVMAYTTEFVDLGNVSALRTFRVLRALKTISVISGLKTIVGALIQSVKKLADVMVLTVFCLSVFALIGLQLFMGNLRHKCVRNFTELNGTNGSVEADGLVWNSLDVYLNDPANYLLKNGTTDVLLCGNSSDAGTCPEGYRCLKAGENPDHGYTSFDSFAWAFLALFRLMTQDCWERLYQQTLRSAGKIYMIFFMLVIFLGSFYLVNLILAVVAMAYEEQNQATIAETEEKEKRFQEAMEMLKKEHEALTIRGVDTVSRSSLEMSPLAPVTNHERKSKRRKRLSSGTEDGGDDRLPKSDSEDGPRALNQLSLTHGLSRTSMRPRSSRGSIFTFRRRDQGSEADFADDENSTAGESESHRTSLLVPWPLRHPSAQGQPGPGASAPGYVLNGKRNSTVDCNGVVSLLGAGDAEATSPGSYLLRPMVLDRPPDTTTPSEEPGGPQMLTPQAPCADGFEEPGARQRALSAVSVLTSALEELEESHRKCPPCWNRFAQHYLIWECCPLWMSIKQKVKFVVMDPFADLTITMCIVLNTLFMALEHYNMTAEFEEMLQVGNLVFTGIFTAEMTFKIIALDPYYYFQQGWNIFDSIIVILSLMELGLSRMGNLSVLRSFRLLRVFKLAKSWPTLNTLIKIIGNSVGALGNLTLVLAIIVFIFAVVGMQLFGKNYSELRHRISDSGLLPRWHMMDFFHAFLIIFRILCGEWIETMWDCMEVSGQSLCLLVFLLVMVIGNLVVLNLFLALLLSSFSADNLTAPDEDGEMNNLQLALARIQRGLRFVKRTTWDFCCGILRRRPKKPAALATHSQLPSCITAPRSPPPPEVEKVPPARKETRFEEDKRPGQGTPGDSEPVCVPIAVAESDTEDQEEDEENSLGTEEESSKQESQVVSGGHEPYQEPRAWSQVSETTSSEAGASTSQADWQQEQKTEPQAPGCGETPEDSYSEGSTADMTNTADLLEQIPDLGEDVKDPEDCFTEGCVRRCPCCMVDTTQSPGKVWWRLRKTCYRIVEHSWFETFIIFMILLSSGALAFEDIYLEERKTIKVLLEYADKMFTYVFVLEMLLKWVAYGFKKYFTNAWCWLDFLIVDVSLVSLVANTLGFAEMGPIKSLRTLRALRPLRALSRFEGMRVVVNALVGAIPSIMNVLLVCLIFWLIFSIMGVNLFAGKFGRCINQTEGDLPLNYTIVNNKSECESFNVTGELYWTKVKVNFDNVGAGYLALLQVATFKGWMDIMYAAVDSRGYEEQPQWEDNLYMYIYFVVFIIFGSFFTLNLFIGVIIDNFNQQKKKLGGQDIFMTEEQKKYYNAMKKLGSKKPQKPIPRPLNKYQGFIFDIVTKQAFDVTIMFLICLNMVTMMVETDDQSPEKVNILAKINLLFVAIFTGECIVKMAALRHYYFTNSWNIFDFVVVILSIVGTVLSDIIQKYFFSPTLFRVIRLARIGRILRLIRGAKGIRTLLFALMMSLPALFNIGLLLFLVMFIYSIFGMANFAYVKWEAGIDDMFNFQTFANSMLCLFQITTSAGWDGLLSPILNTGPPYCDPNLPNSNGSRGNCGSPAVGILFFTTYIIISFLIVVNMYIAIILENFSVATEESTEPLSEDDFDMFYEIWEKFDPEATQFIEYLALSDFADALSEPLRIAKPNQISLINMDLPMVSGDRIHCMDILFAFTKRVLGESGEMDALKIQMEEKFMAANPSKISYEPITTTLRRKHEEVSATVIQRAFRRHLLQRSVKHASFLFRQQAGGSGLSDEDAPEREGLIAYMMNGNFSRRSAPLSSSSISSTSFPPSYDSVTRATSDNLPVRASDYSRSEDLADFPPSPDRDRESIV

B1: Kir2.1 channels of rat ventricular myocytes (natural protein, rat (endogenous in ventricular myocytes), UniProt Q64273 1-427, looked up)
chain: MGSVRTNRYSIVSSEEDGMKLATMAVANGFGNGKSKVHTRQQCRSRFVKKDGHCNVQFINVGEKGQRYLADIFTTCVDIRWRWMLVIFCLAFVLSWLFFGCVFWLIALLHGDLDASKESKACVSEVNSFTAAFLFSIETQTTIGYGFRCVTDECPIAVFMVVFQSIVGCIIDAFIIGAVMAKMAKPKKRNETLVFSHNAVIAMRDGKLCLMWRVGNLRKSHLVEAHVRAQLLKSRITSEGEYIPLDQIDINVGFDSGIDRIFLVSPITIVHEIDEDSPLYDLSKQDIDNADFEIVVILEGMVEATAMTTQCRSSYLANEILWGHRYEPVLFEEKHCYKVDYSRFHKTYEVPNTPLCSARDLAEKKYILSNANSFCYENEVALTSKEEEDSENGVPESTSTDSPPGIDLHNQASVPLEPRPLRRESEI
notes: Kir2.1 inward rectifier K+ channel, endogenous at the membrane of Sprague-Dawley rat ventricular myocytes; source: endogenous, isolated rat ventricular myocytes (fixed, non-permeabilized)
  fold increase of the PLA fluorescence signal over the negative control (no primary antibodies): ~6.5 fold
